In publication doi:10.1101/2021.08.31.458345:

Key:
[1] = molecular target: gp41 subunit of ADA.CM.v4 Env (CTD truncated by 102 amino acids) (HIV-1 (subtype B isolate ADA)); experiment: cryo-EM structure
[2] = molecular target: immature Gag polyprotein (pr55 Gag precursor) (HIV-1); experiment: cryo-EM structure

| Substance | stoichiometry N [1] | stoichiometry N [2] |
| --- | --- | --- |
| gp41 subunit of ADA.CM.v4 Env (CTD truncated by 102 amino acids) (domain or fragment) | 3 | – |
| immature Gag polyprotein (pr55 Gag precursor) (natural protein) | – | 6 |
